Data taken from publication PMC10833452 (Protein & Cell, 2023).

The binders below were run against T1, SARS-CoV-2 wild-type spike protein ectodomain, prefusion-stabilized trimer (WT-S) (SARS-CoV-2 prototype (MN908947), UniProt P0DTC2, proline substitution at 986 | proline substitution at 987 | GSAS substitution …) (assay: cryo-EM structure). Conditions: both partners purified.

Binder	binding result
S2X35 Fab (Fab, V domains shown) VH: QVQLVQSGAEVKKPGASVKVSCKASGYTFTNYGISWVRQAPGQGLEWMGWISAYKGNTNYAQKLQGRVTMTTDTSTSTAYMELRSLRSDDTAVYYCARPDYQVLGYDFWIGYYGMDVWGQGTTVIVSS VL: QSVLTQPPSVSGAPGQRVTISCTGSSSNIGAGYDVHWYQQLPGTAPKLLIYGNTNRPSGVPDRFSGSKSGTSASLAITGLQAEDEADYYCQSYDSSLSGSEVVFGGGTKLTVL	binds
VacW-209 Fab (Fab, V domains shown) VH: QVQLVESGGGVVQPGRSLRLSCAASGFTFSSIAMHWVRQAPGKGLEWVAVMSFDGSIKYYGDSVKGRFTISRDNSKSTLYLQMNSLRAEDTAVYYCARGVQGYYDRSGYYNLDYNYGMDVWGQGTTVTVSS VL: QSVLTQPPSVSGAPGQRVTISCTGSSSNIGAGYDVHWYQQLPGTAPKLLIYGNSNRPSGVPDRFSGSKSGTSASLAITGLQAEDEADYYCQSYDSSLSGWVFGGGTKLTVL	binds
S2E12 Fab (Fab, V domains shown) VH: not shown VL: DIVLTQTPGTLSLSPGERATLSCRASQSVSSSYLAWYQQKPGQAPRLLIYGASSRATGIPDRFSGSGSGTDFTLTISRLEPEDFAVYYCQQYVGLTGWTFGQGTKVEIK	binds

These binders were tested against T1, SARS-CoV-2 wild-type spike protein … (assay: SPR). Conditions: both partners purified.

Binder	binding result
S2X35 recombinant antibody (human IgG constant region) (antibody, V domains shown) VH: QVQLVQSGAEVKKPGASVKVSCKASGYTFTNYGISWVRQAPGQGLEWMGWISAYKGNTNYAQKLQGRVTMTTDTSTSTAYMELRSLRSDDTAVYYCARPDYQVLGYDFWIGYYGMDVWGQGTTVIVSS VL: QSVLTQPPSVSGAPGQRVTISCTGSSSNIGAGYDVHWYQQLPGTAPKLLIYGNTNRPSGVPDRFSGSKSGTSASLAITGLQAEDEADYYCQSYDSSLSGSEVVFGGGTKLTVL	binds
8H12 monoclonal antibody (mouse IgG) (antibody, V domains shown) VH: EVKLEESGGGLVQPGGSMKLSCAASGFTFSDAWMDWVRQSPEKGLEWVAQIRRKANNHATYYAESVKGRFTISRDDSKSSVYLQMNSLRAEDTGIYYCIRGMTYAMDFWGQGTSVTVSS VL: DIVMTQFQKFMSTSVGDRVSITCKASQNVRTAVAWYQQKPGQSPKAMIYLASNRHRGVPDRFTGSGCGTDFTLTISNVQCEDLADYFCLQHRNYPLTFGGGTKLEIK	binds
VacW-209 recombinant antibody (human IgG constant region) (antibody, V domains shown) VH: QVQLVESGGGVVQPGRSLRLSCAASGFTFSSIAMHWVRQAPGKGLEWVAVMSFDGSIKYYGDSVKGRFTISRDNSKSTLYLQMNSLRAEDTAVYYCARGVQGYYDRSGYYNLDYNYGMDVWGQGTTVTVSS VL: QSVLTQPPSVSGAPGQRVTISCTGSSSNIGAGYDVHWYQQLPGTAPKLLIYGNSNRPSGVPDRFSGSKSGTSASLAITGLQAEDEADYYCQSYDSSLSGWVFGGGTKLTVL	binds
S2E12 recombinant antibody (human IgG constant region) (antibody, V domains shown) VH: not shown VL: DIVLTQTPGTLSLSPGERATLSCRASQSVSSSYLAWYQQKPGQAPRLLIYGASSRATGIPDRFSGSGSGTDFTLTISRLEPEDFAVYYCQQYVGLTGWTFGQGTKVEIK	binds
